Experimental data published in the supplement of paper PMC11246515.
± gives the standard deviation of the averaged measurements.

Assay: total protein half-life in vivo (active degradation + dilution); higher = more stable protein
[1] = E. coli NCM3722 delta-clpP delta-lon delta-hslV, growth: N-lim chemostat, doubling time 6 h
[2] = E. coli NCM3722 delta-clpP, growth: N-lim chemostat, doubling time 6 h
[3] = E. coli NCM3722 delta-hslV, growth: N-lim chemostat, doubling time 6 h
[4] = E. coli NCM3722 delta-smpB, growth: N-lim chemostat, doubling time 6 h
[5] = wild type E. coli NCM3722, growth: C-lim chemostat, doubling time 6 h
[6] = wild type E. coli NCM3722, growth: C-lim chemostat, doubling time 12 h
[7] = wild type E. coli NCM3722, growth: N-lim chemostat, doubling time 6 h
[8] = wild type E. coli NCM3722, growth: N-lim chemostat, doubling time 12 h
[9] = wild type E. coli NCM3722, growth: P-lim chemostat, doubling time 6 h
[10] = wild type E. coli NCM3722, growth: P-lim chemostat, doubling time 12 h
[11] = E. coli NCM3722 delta-lon, growth: N-lim chemostat, doubling time 6 h
[12] = wild type E. coli NCM3722, growth: C-lim chemostat, doubling time 3 h

Sequence | total protein half-life in vivo [1] [h] | total protein half-life in vivo [2] [h] | total protein half-life in vivo [3] [h] | total protein half-life in vivo [4] [h] | total protein half-life in vivo [5] [h] | total protein half-life in vivo [6] [h] | total protein half-life in vivo [7] [h] | total protein half-life in vivo [8] [h] | total protein half-life in vivo [9] [h] | total protein half-life in vivo [10] [h] | total protein half-life in vivo [11] [h] | total protein half-life in vivo [12] [h]
MYKQAVILLLMLFTASVSAALPARYMQTIENAAVWAQIGDKMVTVGNIRAGQIIAVEPTAASYYAFNFGFGKGFIDKGHLEPVQGRQKVEDGLGDLNKPLSNQNLVTWKDTPVYNAPSAGSAPFGVLADNLRYPILHKLKDRLNQTWYQIRIGDRLAYISALDAQPDNGLSVLTYHHILRDEENTRFRHTSTTTSVRAFNNQMAWLRDRGYATLSMVQLEGYVKNKINLPARAVVITFDDGLKSVSRYAYPVLKQYGMKATAFIVTSRIKRHPQKWNPKSLQFMSVSELNEIRDVFDFQSHTHFLHRVDGYRRPILLSRSEHNILFDFARSRRALAQFNPHVWYLSYPFGGFNDNAVKAANDAGFHLAVTTMKGKVKPGDNPLLLKRLYILRTDSLETMSRLVSNQPQG | 5.86 ± 0.059 | 5.98 ± 0.23 | 5.24 ± 0.3 | 5.73 ± 0.38 | 4.78 | 12.5 | 5.58 ± 0.86 | 11.6 ± 3 | 5.64 | 12.4 |  | 
MLPFLKAPADAPLMTDKYEIDARYRYWRRHILLTIWLGYALFYFTRKSFNAAVPEILANGVLSRSDIGLLATLFYITYGVSKFVSGIVSDRSNARYFMGIGLIATGIINILFGFSTSLWAFAVLWVLNAFFQGWGSPVCARLLTAWYSRTERGGWWALWNTAHNVGGALIPIVMAAAALHYGWRAGMMIAGCMAIVVGIFLCWRLRDRPQALGLPAVGEWRHDALEIAQQQEGAGLTRKEILTKYVLLNPYIWLLSFCYVLVYVVRAAINDWGNLYMSETLGVDLVTANTAVTMFELGGFIGALVAGWGSDKLFNGNRGPMNLIFAAGILLSVGSLWLMPFASYVMQATCFFTIGFFVFGPQMLIGMAAAECSHKEAAGAATGFVGLFAYLGASLAGWPLAKVLDTWHWSGFFVVISIAAGISALLLLPFLNAQTPREA | 7.27 | 6.56 ± 0.2 | 5.26 | 6.52 ± 0.92 | 6.04 | 10.4 | 5.01 ± 2.2 | > 16 |  | 10.6 ± 1.1 | 5.43 ± 0.18 | 2.81
MKHYSIQPANLEFNAEGTPVSRDFDDVYFSNDNGLEETRYVFLGGNQLEVRFPEHPHPLFVVAESGFGTGLNFLTLWQAFDQFREAHPQAQLQRLHFISFEKFPLTRADLALAHQHWPELAPWAEQLQAQWPMPLPGCHRLLLDEGRVTLDLWFGDINELTSQLDDSLNQKVDAWFLDGFAPAKNPDMWTQNLFNAMARLARPGGTLATFTSAGFVRRGLQDAGFTMQKRKGFGRKREMLCGVMEQTLPLPCSAPWFNRTGSSKREAAIIGGGIASALLSLALLRRGWQVTLYCADEAPALGASGNRQGALYPLLSKHDEALNRFFSNAFTFARRFYDQLPVKFDHDWCGVTQLGWDEKSQHKIAQMLSMDLPAELAVAVEANAVEQITGVATNCSGITYPQGGWLCPAELTRNVLELAQQQGLQIYYQYQLQNLSRKDDCWLLNFAGDQQATHSVVVLANGHQISRFSQTSTLPVYSVAGQVSHIPTTPELAELKQVLCYDGYLTPQNPANQHHCIGASYHRGSEDTAYSEDDQQQNRQRLIDCFPQAQWAKEVDVSDKEARCGVRCATRDHLPMVGNVPDYEATLVEYASLAEQKDEAVSAPVFDDLFMFAALGSRGLCSAPLCAEILAAQMSDEPIPMDASTLAALNPNRLWVRKLLKGKAVKAG | 4.59 ± 0.099 | 4.792 ± 0.021 | 4.36 ± 0.24 | 3.84 ± 0.39 | 5.48 ± 0.74 | 9.73 ± 0.51 | 4.41 ± 0.17 | 8.97 ± 0.84 | 4.57 ± 0.22 | 7.48 ± 1 | 4.42 ± 0.19 | 2.83 ± 0.03
MSSQYLRIFQQPRSAILLILGFASGLPLALTSGTLQAWMTVENIDLKTIGFFSLVGQAYVFKFLWSPLMDRYTPPFFGRRRGWLLATQILLLVAIAAMGFLEPGTQLRWMAALAVVIAFCSASQDIVFDAWKTDVLPAEERGAGAAISVLGYRLGMLVSGGLALWLADKWLGWQGMYWLMAALLIPCIIATLLAPEPTDTIPVPKTLEQAVVAPLRDFFGRNNAWLILLLIVLYKLGDAFAMSLTTTFLIRGVGFDAGEVGVVNKTLGLLATIVGALYGGILMQRLSLFRALLIFGILQGASNAGYWLLSITDKHLYSMGAAVFFENLCGGMGTSAFVALLMTLCNKSFSATQFALLSALSAVGRVYVGPVAGWFVEAHGWSTFYLFSVAAAVPGLILLLVCRQTLEYTRVNDNFISRTAYPAGYAFAMWTLAAGVSLLAVWLLLLTMDALDLTHFSFLPALLEVGVLVALSGVVLGGLLDYLALRKTHLT [P0AE16] |  | 5.97 |  | 6.24 | 4.45 | 4.64 | 6.55 | 12.4 ± 4.7 |  | 10.3 ± 1.2 |  | 
